Assay results from the supplement of paper PMC12042874.
± gives the uncertainty stated by the source.

experiment: amyloid nucleation score (Sup35N fusion, yeast selection) (log enrichment); library NNK2; higher = more nucleation; inactive = no reads after selection
Outline: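 The nucleation score is a DiMSum log enrichment of output over input reads, centred on the mode score of non-aggregating sequences. Sequences under 100 input reads were excluded, and reads came from Illumina sequencing of plasmid inserts. Psi-negative yeast expressing Sup35N fused to peptides of 20 random codons were induced with 100 μM copper sulfate for 24 hours and grown 7 days at 30°C on medium lacking adenine and uracil. Random libraries had three technical output replicates.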

| Substance | amyloid nucleation score |
| --- | --- |
| TWRVP | 0.884 ± 0.55 |
| MNSSQGTDAKRMLYHRCSET | -0.29 ± 0.56 |
| KYLRVDMVNMNAYKGHWEGS | 0.526 ± 0.66 |
| NSRIL | inactive |
| CRSNQNESLNGC | 0.436 ± 0.21 |
| PLYPLCSHPYVGFVTHTISR | -0.053 ± 1 |
| AMVLFDGNVLWIHDRSCRRI | 0.862 ± 0.53 |
| CLHCSRFSKTLYRKFRNREN | -0.33 ± 0.76 |
| SISRFSFIRNTVGRD | 0.637 ± 0.37 |
| FCKRKVTCVVY | -0.538 ± 0.45 |
| RLRSILLSWCCRFGGSQLRA | 0.581 ± 0.39 |
| LYSMSHCWHVQCWEFDSYVG | -0.174 ± 0.23 |
| FRSGCQFLWHERLNNNVTNA | 1.54 ± 0.093 |
| GMEINAYY | 0.048 ± 0.65 |
| SLHMFLVIFSYLLVANRGKS | 0.246 ± 0.65 |
| HYQYSFARTMVMLNMDWLML | 0.462 ± 0.43 |
| CLLHMWIGLSSKVGGVRDA | -0.781 ± 0.79 |
| FILGSESNLRVSMRLFGSNW | 5.019 ± 0.03 |
| GFWKTYNTFVLSWSRTNCLQ | 0.431 ± 0.64 |
| LASPGTRFSFGSLVACGVVQ | -0.178 ± 0.35 |
| VGDCITAWRSWNNCFVGYGP | 3.2 ± 0.053 |
| MKTSLYRRGNPRLYREKSRK | 1.01 ± 0.27 |
| LYQMCIRLI | -0.657 ± 0.55 |
| TAMFPHVRYSDTSYPAKRAV | -0.947 ± 0.41 |
| MTWARRRSINIYDRHLRMAG | -0.388 ± 1 |

| Substance | amyloid nucleation score |
| --- | --- |
| LVKLEKHRLKVVNDYNSFEG | inactive |
| SMNPWYIHWLI | 0.003 ± 0.79 |
| GLIVKLMGIFRNRSETSESQ | 4.47 ± 0.083 |
| EYIYLNLYISDNLYSSGKSG | 2.88 ± 0.16 |
| DPSGYHVSFHSGDGGCEYC | 2.71 ± 0.085 |
| SHFGLDADWVEVPYYRFFRY | -0.8 ± 1 |
| FVNATVLR | 1.24 ± 0.16 |
| CVVQHSRSFVRPLLSTLQAC | 0.453 ± 0.23 |
| HSRQCFTHFGYFTGLGRVRV | 2.18 ± 0.1 |
| IIILFQVQCHVVRLSRVHKC | -0.658 ± 0.49 |
| MVLEGHKCYGLRNGPNNARI | 0.451 ± 0.49 |
| CFGFYGAIVD | 0.023 ± 0.39 |
| CEGNGVFYGLPYSGSDIPNR | -0.719 ± 0.61 |
| RLMVWSSL | 1.87 ± 0.38 |
| NGVIRVSWSTR | 6.48 ± 0.087 |
| SETLFEYS | -1.55 ± 0.55 |
| STGCSYHFRMIHATVTTYFG | 3.59 ± 0.053 |
| CSFCRPFVTCILIRSKVCGW | 1.21 ± 0.11 |
| ALENSDSELCETAWFFHFMH | 0.185 ± 0.8 |
| ATDADGRLISY | 1.31 ± 0.25 |
| HNAEANNVS | -0.492 ± 1.1 |
| ASYLLKVVVYIHLSGSHGVD | 4.55 ± 0.068 |
| CDVFMQAKIASVMGYDVQRA | -0.225 ± 0.41 |
| NYIVVARFYSRVVFFRV | inactive |
| CTVFCLQRSFGHYSLMMLIN | 2.22 ± 0.12 |

| Substance | amyloid nucleation score |
| --- | --- |
| YNGTTLMMGDIGSCSFI | -0.787 ± 0.38 |
| GRMQTKTILKNIECNNDSLM | 2.39 ± 0.057 |
| MRPAPIINN | 1.14 ± 0.44 |
| AGKFSWDNPYILLVNTI | inactive |
| PVRCMIAHNCLIFWLVWTVV | -0.154 ± 0.25 |
| KLQRTGLYCYLY | -0.912 ± 0.42 |
| LFASALFRMVSAFLEVAIL | 0.722 ± 0.43 |
| IALTQILLRFFGLHA | -0.305 ± 1.1 |
| WKESGVHRHFHTSIGKDRVL | inactive |
| CSFRAFLWCILGGGENFNSS | 2.91 ± 0.065 |
| YGMSRNIGAVVWHFCG | -0.368 ± 1 |
| ITSSRDDVSYTVGPKDMFES | 1.17 ± 0.37 |
| YALVVLIWT | -1.43 ± 1.1 |
| LGIIQTVCRHGLQFMCVSRG | -0.122 ± 0.49 |
| LSRLNFGIFDKVTAATGLMK | -1.26 ± 0.78 |
| HFYHLDTSHSGWDLKSSY | 4.68 ± 0.075 |
| NMSLHRAILGFKAATIMRSL | -0.821 ± 1.1 |
| STPLGPFLYF | -0.961 ± 0.76 |
| QSRDKYLKFRPSLWATEMTW | -0.127 ± 0.31 |
| EWDVLGLRGRANN | 1.36 ± 0.35 |
| RSIISFPLFLFSIQLIPPWA | -0.792 ± 0.6 |
| YKLTGLDYKWASLNATWETQ | inactive |
| IVGELVMTFKSVMAARTPFH | 4.19 ± 0.064 |
| RSRRRHRLDVGSWRWCCGES | 4.08 ± 0.052 |
| RLVYGLFAYKF | 5.29 ± 0.037 |

| Substance | amyloid nucleation score |
| --- | --- |
| SFFQSVMPYHLVYLGQILLN | -1.25 ± 0.34 |
| YREHQKVRFSSLISSIGVLM | -0.004 ± 0.49 |
| LTYYLSYCHYRRTYLAGLLQ | -0.249 ± 0.2 |
| YFHVVFL | 2.75 ± 0.094 |
| NVGTEFVWIPYFYSAS | 0.716 ± 0.66 |
| VWWSEVTAVSNCQRVSYARP | 2.94 ± 0.075 |
| LCFSVNLARNLWLDNWVGGR | 6.12 ± 0.084 |
| IRFGLVWRLKLGFMLGLNSA | 4.98 ± 0.095 |
| TNITGVIRVL | -0.211 ± 0.31 |
| RSWIFVSLIDCMEWILMNGS | -0.451 ± 1 |
| SQVLLGQCCMNHKDLSFVWI | 0.708 ± 0.34 |
| KSVWLKVGCQPPIRFEFCEM | 0.037 ± 0.49 |
| SALRSSEEFSAFCVE | -0.084 ± 0.74 |
| IFCAGYDNPRFINLLLLPKG | 3.05 ± 0.1 |
| DGVSCSRVNAVVYARLSQMG | 1.3 ± 0.23 |
| FMSLTSMLCNLRTNSCMCAR | -0.014 ± 0.21 |
| DFNLWPLC | -0.373 ± 1.1 |
| AMRGI | 1.26 ± 0.23 |
| ISRVSGGQTLPSGLVMG | -0.326 ± 0.45 |
| TLETSNILFYGEDVKLSSQV | 0.078 ± 0.34 |
| VRYGDRSGGLYLKRYFMLSF | inactive |
| LYLTYKVVHTSTPPVASYCE | 5.855 ± 0.033 |
| SARRRINGNPCEEMNQRLAV | 1.08 ± 0.53 |
| CNFVTILLGMN | 4.85 ± 0.055 |
| RLSEVTKDYVGTCNLDRLS | -0.157 ± 0.29 |

| Substance | amyloid nucleation score |
| --- | --- |
| SDRGYSE | 3.2 ± 0.14 |
| SFSVLLADGQYRCYLLDSVL | -0.516 ± 0.48 |
| NFENCVFWYNLYCNFD | 7.516 ± 0.047 |
| KWIRDIRDLQTH | -0.275 ± 0.65 |
| YKYMGLFSSIFNVLGSLISY | -1.95 ± 1.1 |
| YNLESLNFMLCSLRTQGKFR | 0.149 ± 0.25 |
| HDRWNWGDCFVIDHALLLMG | 0.393 ± 0.31 |
| DTDDVNHYSFTPRALSSGFI | inactive |
| VDANIHWTCNSG | 0.322 ± 0.38 |
| YGFDLKSGQSADASCASVSG | 0.586 ± 0.31 |
| PWALTFNHCKIDDTKRGHIV | 0.64 ± 0.8 |
| IPLQSTMRFRCPVMDLGNFI | -0.849 ± 1 |
| LGYMVVK | -1.35 ± 0.75 |
| IRQIIESWQFLYISVYAGLV | 0.186 ± 0.51 |
| LNNIFDLQYWQLWMSRQVKS | 0.809 ± 0.14 |
| GCDLYL | -0.256 ± 0.79 |
| LRGSFNLVSYFTQLRSCDYF | -1.27 ± 0.78 |
| NFCALSKCT | -0.618 ± 0.63 |
| SDFMTKYHHL | 3.33 ± 0.058 |
| CLLLRVTR | 0.015 ± 0.27 |
| NCYRLWWPVLSTWWRFFI | 0.047 ± 0.35 |
| YSSPGSSPAFQRFGVVRRMN | inactive |
| IDVLYCHDSL | 0.311 ± 0.42 |
| EFSSTTSALGKDVRVFNFAI | -1.26 ± 0.62 |
| LNLSWVCSLGRYFVGGYISF | -1.29 ± 0.63 |

| Substance | amyloid nucleation score |
| --- | --- |
| MFSESE | -0.275 ± 0.35 |
| EGLQFRCLRNSEILVCGYFS | 0.466 ± 0.54 |
| VRCIE | -0.282 ± 0.28 |
| PWWLWVGSMYENYGFAPFWV | -0.969 ± 0.3 |
| PIFLFQRYPLLGLWLKKACD | inactive |
| SLKLLYKMKLRSGQWAHIYR | 0.03 ± 0.43 |
| ILCLF | 0.909 ± 0.45 |
| VSVKRGAPKVGSTGPVYTCG | -0.306 ± 0.5 |
| NYYYIVLLYRSLLLMS | -0.265 ± 0.41 |
| WSYRTESIHLYYLRPIFKIV | -1.11 ± 0.54 |
| RYCLTVSKGLRSG | -0.722 ± 0.49 |
| TFILFGRFEQTKVSVW | 3.67 ± 0.075 |
| GRRLKGYVTSGIEDWLKGRM | 0.908 ± 0.35 |
| TLHWSMR | 8.355 ± 0.034 |
| KMMTSSFRMDGVNSTLIWLI | -0.08 ± 1 |
| LCPVLYT | inactive |
| YQTWDSYVRSTCVYITCPWY | 7.133 ± 0.059 |
| SSPSYSSSSHKRTL | 2.14 ± 0.25 |
| YMKKSMF | -0.095 ± 1.1 |
| ADATGVECPIYDRRRVNRTN | -0.235 ± 0.8 |
| LCSVWEVFLYFF | 1.84 ± 0.11 |
| AFYWVWDLDSGICNVSIFRL | -0.995 ± 0.34 |
| LCILTRTYSAQA | -0.238 ± 0.49 |
| KLYSQTVSANLGVGWSSS | 2.12 ± 0.15 |
| PNLIGLLVGLRVNSWSVAIT | 0.632 ± 0.21 |

| Substance | amyloid nucleation score |
| --- | --- |
| CMLMYVYMIDWRPINFMFF | 5.301 ± 0.041 |
| VWLNHLTTIYYCNHKLCLLL | 2.17 ± 0.22 |
| IGAMN | 0.586 ± 0.44 |
| TPIVGMLY | -0.477 ± 0.55 |
| CSVVTNGLLNMSSFPHVFCM | 1.79 ± 0.11 |
| GFDYLIFLNKHRLVMSWSFE | -0.675 ± 1.1 |
| NLHFCVQKSGESASRVVHHA | 0.958 ± 0.46 |
| CMYNRLLLLGALFVTPQWVR | 0.079 ± 0.5 |
| TGCMSMLFKCAGMCQWWSGG | 6.71 ± 0.086 |
| NRLLSVSEFAMDTRMRQEEA | 1.01 ± 0.36 |
| TLLLDQCDSRVDFWSNVP | -0.088 ± 1.1 |
| GLLSCMPCRGINLLPSVIRR | 1.21 ± 0.61 |
| KYGTSIVTHGAVKDAKYCCR | 3.44 ± 0.062 |
| ATYIGRSNVSRWVVRAMSSS | 5.25 ± 0.073 |
| ASITYNACLKPLQM | 0.313 ± 0.64 |
| MNFWILFQNLQHRCVQVTGR | 3.64 ± 0.068 |
| LKYVVTVHIMFMLSSWSQGC | -0.814 ± 0.79 |
| VWEGTGPLEICWFCWGEW | 2.5 ± 0.17 |
| SEFGSNEYRDGLGVYYGST | -0.542 ± 0.33 |
| MVLIENSCKMSSYQE | -0.405 ± 0.35 |
| LTLHICRAAVYSYGTLS | 1.63 ± 0.12 |
| LCISIRD | -0.111 ± 0.8 |
